# Experimental data: the RNAGym collection of RNA variant scans (doi:10.7554/elife.90254)
# B1: OR4K15 (parent)
# chain: GUUAACGGUCAUAGGCCAUGGAAACUAGGAGCACCAUUUCGCUGCCAGUGAAGAAAUGAACAAAGAAAAUCUGGGCCAGGCAGGCAUCAAAAGAAAUAGUCUUGCGCUCAACCAGAAAGUCUGUAAUCAUUUUAAGGGUA
# Variants of: B1
# Test: self-cleavage, relative activity (ratio to wild type); higher = more cleavage; in vitro, sequencing; the parent is a self-cleaving ribozyme
row,Variant,self-cleavage
1,GUUAACGGUCAUAGGCCAUGGAAACUAGGAGCACCAUUUCGCUGCCAGUGAAGGAAUGAACAAUGAAAAUCUGGGCCAGGCAGGCAUCAAAAGAAAUAGUCUUGCGCUCAACCAGAAAGUCUGUAAUCAUUUUAAGGGUA,1.67
2,GUUAACGGUCAUAGGCCAUGGAAACUAGGAGCACCAUUUCGCUGCCAGUGAAUAAAUGAACAAAGAAAAUCUGGGCCAGGCAGGCAUCAAAAGAAAUAGUCUUGCGCUCAACCAGAAAGUCCGUAAUCAUUUUAAGGGUA,2
3,GUUAACGGUCAUAGGCCAUGGAAACUAGGAGCACCAUUUCGCUGCCAGUGAAGGAAUGAACAAAGAUAAUCUGGGCCAGGCAGGCAUCAAAAGAAAUAGUCUUGCGCUCAACCAGAAAGUCUGUAAUCAUUUUAAGGGUA,2.17
4,GUUAACGGUCAUAGGCCAUGGAAACUAGGAGCACCAUUUCGCUGCCAGUGAAAAAAUGAACAAAGAAAAUCUGGGCCAGGCAGGCAUCAGAAGAAAUAGUCUUGCGCUCAACCAGAAAGUCUGUAAUCAUUUUAAGGGUA,0.74
5,GUUAACGGUCAUAGGCCAUGGAAACUAGGAGCACCAUUUCGCUGCCAGUGAAUAAAUGAACAAAGAAAAUCUGGGCCAGGCAGGCAUCAAAAGAAAUAGUCUUGCGCUCAGCCAGAAAGUCUGUAAUCAUUUUAAGGGUA,0.04
6,GUUAACGGUCAUAGGCCAUGGAAACUAGGAGCACCAUUUCGCUGCCAGUGAAGGCAUGAACAAAGAAAAUCUGGGCCAGGCAGGCAUCAAAAGAAAUAGUCUUGCGCUCAACCAGAAAGUCUGUAAUCAUUUUAAGGGUA,1.94
7,GUUAACGGUCAUAGGCCAUGGAAACUAGGAGCACCAUUUCGCUGCCAGUGAAGGGAUGAACAAAGAAAAUCUGGGCCAGGCAGGCAUCAAAAGAAAUAGUCUUGCGCUCAACCAGAAAGUCUGUAAUCAUUUUAAGGGUA,0.99
8,GUUAACGGUCAUAGGCCAUGGAAACUAGGAGCACCAUUUCGCUGCCAGUGAAUAAAUGAACAAAGAAAGUCUGGGCCAGGCAGGCAUCAAAAGAAAUAGUCUUGCGCUCAACCAGAAAGUCUGUAAUCAUUUUAAGGGUA,0.57
9,GUUAACGGUCAUAGGCCAUGGAAACUAGGAGCACCAUUUCGCUGCCAGUGAAAAAAUGAACAAAGAAAAUCUGGGCCAGGCAGGCAUCAAAAGAAAUAGUCUUGCGCUCAACCAGAAAGUCUGUAAUAAUUUUAAGGGUA,0.93
10,GUUAACGGUCAUAGGCCAUGGAAACUAGGAGCACCAUUUCGCUGCCAGUGAUGAAAUGAACAAAGAAAAUCUGGGCCAGGCAGGCAUCAAAAGAAAUAGUCUUGCGCUCAACCAGAAAGUCAGUAAUCAUUUUAAGGGUA,0.96
11,GUUAACGGUCAUAGGCCAUGGAAACUAGGAGCACCAUUUCGCUGCCAGUGAAGGAAUGUACAAAGAAAAUCUGGGCCAGGCAGGCAUCAAAAGAAAUAGUCUUGCGCUCAACCAGAAAGUCUGUAAUCAUUUUAAGGGUA,0.71
12,GUUAACGGUCAUAGGCCAUGGAAACUAGGAGCACCAUUUCGCUGCCAGUGAAUAAAUGAACAAAGUAAAUCUGGGCCAGGCAGGCAUCAAAAGAAAUAGUCUUGCGCUCAACCAGAAAGUCUGUAAUCAUUUUAAGGGUA,1.77
13,GUUAACGGUCAUAGGCCAUGGAAACUAGGAGCACCAUUUCGCUGCCAGUGAAGCAAUGAACAAAGAAAAUCUGGGCCAGGCAGGCAUCAAAAGAGAUAGUCUUGCGCUCAACCAGAAAGUCUGUAAUCAUUUUAAGGGUA,2.18
14,GUUAACGGUCAUAGGCCAUGGAAACUAGGAGCACCAUUUCGCUGCCAGUGAUGAAAUGAACAAAGAAAAUCUGGGCCAGGCAGGCAUCAAAAGAAAUAGUCUUGCGCUCAACCAGAAAGUCUGUAAUCAUAUUAAGGGUA,1.49
15,GUUAACGGUCAUAGGCCAUGGAAACUAGGAGCACCAUUUCGCUGCCAGUGAUGAAAUGAACAAAGAAAAUCUGGGCCAGGCAGGCAUCAAAAGAAAUAGUCUUGCGCUCAACCAGAAAGUCUGUAAUCAUUCUAAGGGUA,1.06
16,GUUAACGGUCAUAGGCCAUGGAAACUAGGAGCACCAUUUCGCUGCCAGUGAAUAAAUGAACAAAGAAAAUCUGGGCCAGGCAGGCAUCAAAAGAAAUAGUCUUGCGCUCAACCAGAAGGUCUGUAAUCAUUUUAAGGGUA,1.67
17,GUUAACGGUCAUAGGCCAUGGAAACUAGGAGCACCAUUUCGCUGCCAGUGAUGAAAUGAACAAAGAAAAUCUGGGCCAGGCAGGCAUCAAAAGAAAUAGUCUUGCGCUCAACCAGAAAGUCUGCAAUCAUUUUAAGGGUA,0.48
18,GUUAACGGUCAUAGGCCAUGGAAACUAGGAGCACCAUUUCGCUGCCAGUGAAGGAAUGAACUAAGAAAAUCUGGGCCAGGCAGGCAUCAAAAGAAAUAGUCUUGCGCUCAACCAGAAAGUCUGUAAUCAUUUUAAGGGUA,1.14
19,GUUAACGGUCAUAGGCCAUGGAAACUAGGAGCACCAUUUCGCUGCCAGUGAAGGAAUGAACGAAGAAAAUCUGGGCCAGGCAGGCAUCAAAAGAAAUAGUCUUGCGCUCAACCAGAAAGUCUGUAAUCAUUUUAAGGGUA,0.92
20,GUUAACGGUCAUAGGCCAUGGAAACUAGGAGCACCAUUUCGCUGCCAGUGAAAAAAUGAACAAAGAAAAUCUGGGCCAGGCAGGCAUCAAGAGAAAUAGUCUUGCGCUCAACCAGAAAGUCUGUAAUCAUUUUAAGGGUA,1.6
21,GUUAACGGUCAUAGGCCAUGGAAACUAGGAGCACCAUUUCGCUGCCAGUGAAGCAAUGAACAAAGAAAAUCAGGGCCAGGCAGGCAUCAAAAGAAAUAGUCUUGCGCUCAACCAGAAAGUCUGUAAUCAUUUUAAGGGUA,0.43

row,Variant,self-cleavage
1,GUUAACGGUCAUAGGCCAUGGAAACUAGGAGCACCAUUUCGCUGCCAGUGAUGAAAUGAACAAAGAAAAUCUGGGCCAAGCAGGCAUCAAAAGAAAUAGUCUUGCGCUCAACCAGAAAGUCUGUAAUCAUUUUAAGGGUA,0.37
2,GUUAACGGUCAUAGGCCAUGGAAACUAGGAGCACCAUUUCGCUGCCAGUGAAAAAAUGAACAAAGAAAAUCUGGGCCAGGCAGGCAUCAAAAGAAAUAGUCUUGCGCUCAACCAGAGAGUCUGUAAUCAUUUUAAGGGUA,2.26
3,GUUAACGGUCAUAGGCCAUGGAAACUAGGAGCACCAUUUCGCUGCCAGUGAAAAAAUGAACAAAGAAAAUCUGGGCCAGGCAGGCAUCAAAAGAAAUAGUCUUGCGCUCAACCAGAACGUCUGUAAUCAUUUUAAGGGUA,0.99
4,GUUAACGGUCAUAGGCCAUGGAAACUAGGAGCACCAUUUCGCUGCCAGUGAAAAAAUGAGCAAAGAAAAUCUGGGCCAGGCAGGCAUCAAAAGAAAUAGUCUUGCGCUCAACCAGAAAGUCUGUAAUCAUUUUAAGGGUA,1.53
5,GUUAACGGUCAUAGGCCAUGGAAACUAGGAGCACCAUUUCGCUGCCAGUGAUGAAAUGAACAAAGAAAAUCUGGGCCAGGCAAGCAUCAAAAGAAAUAGUCUUGCGCUCAACCAGAAAGUCUGUAAUCAUUUUAAGGGUA,1.64
6,GUUAACGGUCAUAGGCCAUGGAAACUAGGAGCACCAUUUCGCUGCCAGUGAAGCAAUGAUCAAAGAAAAUCUGGGCCAGGCAGGCAUCAAAAGAAAUAGUCUUGCGCUCAACCAGAAAGUCUGUAAUCAUUUUAAGGGUA,1.33
7,GUUAACGGUCAUAGGCCAUGGAAACUAGGAGCACCAUUUCGCUGCCAGUGAAGGAAUGAACAAAGAAUAUCUGGGCCAGGCAGGCAUCAAAAGAAAUAGUCUUGCGCUCAACCAGAAAGUCUGUAAUCAUUUUAAGGGUA,1.91
8,GUUAACGGUCAUAGGCCAUGGAAACUAGGAGCACCAUUUCGCUGCCAGUGAAAAAAUGAACAAAGAAAAUCUGGGCCAGGCAGGCAUCAAAAGAAAUAGUCUUGCGCUCAACCAGAAAGUCUGUAAUCACUUUAAGGGUA,1.96
9,GUUAACGGUCAUAGGCCAUGGAAACUAGGAGCACCAUUUCGCUGCCAGUGAAUAAAUGAACAAAGAAAAUCUGGGCCAGGCAGGCAUCAAAAGAAAUAGUCUUGCGCUCAACCUGAAAGUCUGUAAUCAUUUUAAGGGUA,0.19
10,GUUAACGGUCAUAGGCCAUGGAAACUAGGAGCACCAUUUCGCUGCCAGUGAAGGAGUGAACAAAGAAAAUCUGGGCCAGGCAGGCAUCAAAAGAAAUAGUCUUGCGCUCAACCAGAAAGUCUGUAAUCAUUUUAAGGGUA,1.01
11,GUUAACGGUCAUAGGCCAUGGAAACUAGGAGCACCAUUUCGCUGCCAGUGAAGGACUGAACAAAGAAAAUCUGGGCCAGGCAGGCAUCAAAAGAAAUAGUCUUGCGCUCAACCAGAAAGUCUGUAAUCAUUUUAAGGGUA,1.4
12,GUUAACGGUCAUAGGCCAUGGAAACUAGGAGCACCAUUUCGCUGCCAGUGAUGAAAUGAACAAAGAAAAUCUGGGCCAGGCAGGCAUCAAAAGAAAUAGUCUCGCGCUCAACCAGAAAGUCUGUAAUCAUUUUAAGGGUA,1.36
13,GUUAACGGUCAUAGGCCAUGGAAACUAGGAGCACCAUUUCGCUGCCAGUGAAUAAAUGAACAAAGAAAAUCUGGGCCAGGCAGGCAUCAAAAGAAAUAGCCUUGCGCUCAACCAGAAAGUCUGUAAUCAUUUUAAGGGUA,2.06
14,GUUAACGGUCAUAGGCCAUGGAAACUAGGAGCACCAUUUCGCUGCCAGUGAUGAAAUGAACAAAGAAAAUCUGAGCCAGGCAGGCAUCAAAAGAAAUAGUCUUGCGCUCAACCAGAAAGUCUGUAAUCAUUUUAAGGGUA,0.16
15,GUUAACGGUCAUAGGCCAUGGAAACUAGGAGCACCAUUUCGCUGCCAGUGAAGCAAUGAACAAGGAAAAUCUGGGCCAGGCAGGCAUCAAAAGAAAUAGUCUUGCGCUCAACCAGAAAGUCUGUAAUCAUUUUAAGGGUA,1.36
16,GUUAACGGUCAUAGGCCAUGGAAACUAGGAGCACCAUUUCGCUGCCAGUGAAGCAAUGAACAAAGAAAAUCUGGGCCAGGCAGGCAUCAAAAGAAAUAGUCUUGCGCUCAACCAGAAAGUCUGUAAUCAUUUUAAGGGUA,1.41
17,GUUAACGGUCAUAGGCCAUGGAAACUAGGAGCACCAUUUCGCUGCCAGUGAAGGAAUGAACAAAGAAAAUCUGGGCCAGGCAGGCAUCAAAAGAAAUAGUCUUGCGCUCAACCAGAAAGUCUGUAAUCAUUUUAAGGGUA,1.06
18,GUUAACGGUCAUAGGCCAUGGAAACUAGGAGCACCAUUUCGCUGCCAGUGAAGGAAUGAACAAAGGAAAUCUGGGCCAGGCAGGCAUCAAAAGAAAUAGUCUUGCGCUCAACCAGAAAGUCUGUAAUCAUUUUAAGGGUA,1.51
19,GUUAACGGUCAUAGGCCAUGGAAACUAGGAGCACCAUUUCGCUGCCAGUGAAGGAAUGAACAGAGAAAAUCUGGGCCAGGCAGGCAUCAAAAGAAAUAGUCUUGCGCUCAACCAGAAAGUCUGUAAUCAUUUUAAGGGUA,1.55
20,GUUAACGGUCAUAGGCCAUGGAAACUAGGAGCACCAUUUCGCUGCCAGUGAUGAAAUGAACAAAGAAAAUCUGGGCCAGGCAGGCAUCAAAAGAAAUAGUCUUGCGCUCAACCAGAAAGUCUGUAAUCAUUUCAAGGGUA,1.72
